The results in this text go back to patent US20130338033A1, “Diagnostic and Prognostic Markers for Metastasis” (VIRGINIA COMMONWEALTH UNIVERSITY, priority 2011, published 2013).

The test system of one assay is IGFBP-2. Briefly: IGFBP-2 ELISA in conditioned media of FM-516 cells infected with Ad.5/3-mda-9. Format: cell-based, human. The note with it: Ad.5/3-mda-9, 1-5 μM (FIG. 4F). (ELISA stands for enzyme-linked immunosorbent assay.)
A further assay concerns AKT. Briefly: AKT activation (pAKT Western blotting) in HuVECs. It counts as cell-based, human. The note with it: rhIGFBP-2 treatment of HuVECs (FIG. 5C). How it is done: (§1) FIG. 5A-G. IGFBP-2 upregulates the expression of vascular endothelial growth factor (VEGF-A) through the AKT pathway in HuVECs. a) The expression of VEGF-A mRNA (top panel) and protein (bottom panel) were measured by real-time PCR and ELISA, respectively, after treating HuVECs with the indicated doses of rhIGFBP-2. Data represents Mean±S.D. b) HuVECs were transfected with VEGF-A promoter luciferease reporter plasmid and treated with the indicated concentrations of rhIGFBP-2. 48 h after transfection, cells were harvested for luciferase assays as described in Materials and Methods. c) HuVECs (1×10^6 cells) were treated or untreated with the specified doses of rhIGFBP-2 for the indicated times and expression of pAKT and AKT was analyzed by Western blotting. d) HuVECs were pre-treated with LY294002 (30 min) and then treated with rhIGFBP-2. Top panel, analysis of the expression of pART and AKT by Western blotting. Bottom panel, analysis the expression of VEGF-A by ELISA in the CM. e) HuVECs were treated with rhIGFBP-2 together with anti-αVβ3 integrin antibody or anti-mouse IgG as control. Top panel, analysis of expression of pAKT and AKT by Western blotting. Bottom panel, analysis of expression of VEGF-A by ELISA in the CM. f & g) HuVECs were treated as in “e” and CM was used to analyze tube formation […] and neovascularization in CAM (g). […]
(In general: Immunoblotting shows a protein as a band on a membrane.)

Assay [1] deals with HuVECs. Briefly: HuVEC proliferation (growth kinetics, trypan blue dye exclusion). It counts as cell-based, human. To be noted: HuVECs treated with rhIGFBP-2 (FIG. 3B). How it is done:
FIG. 3 A-H. Pro-angiogenic activity of IGFBP-2. a) Top panel, an antibody-based array comparing the expression levels of regulators of angiogenesis in CM from C8161.9 con-sh and C8161.9-shmda-9 clones was performed as described in Materials and Methods. Bottom panel, graphical representation of the band intensity quantified by densitometry. b) HuVECs were cultured in the presence of recombinant human IGFBP-2 (rhIGFBP-2) protein alone or with neutralizing antibody (NA) and growth kinetics were determined by trypan blue dye exclusion as described in Materials and Methods. Data represents Mean±S.D. c, d & e) HuVECs were treated with rhIGFBP-2 with or without neutralizing antibody (NA) and migration (c), tube formation (d) and vascularization in CAM (e) were analyzed. Data represents Mean±S.D. f) C8161.9 cells were transfected with either scrambled RNA (si-con) or si-IGFBP-2 and CM were analyzed for tube formation on Matrigel (upper panel) and vascularization in CAM (lower panel). g) Pooled clones of C8161.9 cells stably expressing shIGFBP-2 were established and assessed for tumor generation ability in athymic nude mice (n=5, repeated three times). […] Tumor weight was measured at the end of the study. Data represents Mean±S.D. In panel c), d) and g), italicized letters indicate significant differences between groups assessed by Student's t-test (p<0.05). […]

Assay [2] has as its system HuVECs. Briefly: Capillary-like tube formation by HuVECs on Matrigel. To be noted: HuVECs treated with rhIGFBP-2 (FIG. 3D). Format: cell-based, human. How it is done: Tube formation assays were performed as described previously (28) using an In Vitro Angiogenesis Assay Kit (Chemicon). The degree of network formation was quantified using the provider's instruction.
The next assay relates to VEGF-A promoter. The experiment in a line: VEGF-A promoter luciferase reporter assay in HuVECs. The note with it: HuVECs treated with rhIGFBP-2, 48 h after transfection (FIG. 5B). It counts as cell-based, human. How it is done:
as §1
(Reporter assays use an easily measured gene product as a stand-in for the process of interest.)

The subject of another assay is VEGF-A. Briefly: VEGF-A expression in HuVECs (real-time PCR, ELISA). Format: cell-based, human. To be noted: HuVECs stimulated with rhIGFBP-2 (FIG. 5A). How it is done: as §1
Assay [3] deals with HuVECs. The experiment in a line: HuVEC migration through Matrigel. Format: cell-based, human. The note with it: HuVECs treated with rhIGFBP-2 (FIG. 3C). From the text:
FIG. 2A-G. Effect of mda-9/syntenin on the angiogenic phenotype of human vascular endothelial cells (HuVECs). a) Time course analysis of growth of HuVECs in co-culture with either C8161.9-con-sh or C8161.9-shmda-9 clones. b) Analysis of tube formation by HuVECs co-cultured with C8161.9-con-sh or C8161.9-shmda-9 clones on Matrigel coated plates grown in serum-starved media conditions. Left panel, photomicrograph, Right panel, graphical representation of quantification of tube formation. Data represents Mean±S.D. c) HuVEC migration towards melanoma cells. […] HuVECs migration was quantified and graphical representation is provided in the lower panel. […] The assay was scored after 18 h. Photomicrograph (Left panel) and graphical quantification of migration (Right panel) is presented. […] Left panel, photomicrograph, Right panel, graphical representation of quantitation of tube formation. […]
FIG. 3 A-H. Pro-angiogenic activity of IGFBP-2. a) Top panel, an antibody-based array comparing the expression levels of regulators of angiogenesis in CM from C8161.9 con-sh and C8161.9-shmda-9 clones was performed as described in Materials and Methods. […] Data represents Mean±S.D. c, d & e) HuVECs were treated with rhIGFBP-2 with or without neutralizing antibody (NA) and migration (c), tube formation (d) and vascularization in CAM (e) were analyzed. […] Tumor weight was measured at the end of the study. […]

Assay [4] concerns chicken chorioallantoic membrane (CAM). Briefly: Chorioallantoic membrane (CAM) neovascularization assay. It counts as in vivo. The note with it: HuVECs treated with rhIGFBP-2 (FIG. 3E). How it is done:
To detect in vivo angiogenesis, we performed CAM assays as described (28). Either cells or CM in a collagen sponge were implanted onto the CAM at day 8 of fertilization. At day 12, CAMs were fixed with 10% formalin; the neovasculature was examined and photographed.
Fertilized chicken eggs (10 eggs per group) was incubated under routine conditions and a square window was opened in the egg shell at the third day of incubation, after removal of 2-3 ml of albumen to detach the shell from the developing CAM. The window was sealed with a glass of the same size and the eggs were returned to the incubator. Either cells or conditioned media with collagen sponge was implanted onto the CAM at day 8 of incubation. At day 12, CAMs were fixed with 10% formalin the neovasculature was examined and photographed.

On to `CC(C)(C)n1nc(-c2ccc(Cl)cc2)c2c(N)ncnc21` [PP-2], for which the “mda-9/syntenin-induced IGFBP-2 expression” value in the assay with IGFBP-2 is on record as “dose-dependent decrease”.

B1: rhIGFBP-2: recombinant human IGFBP-2 protein (protein, UniProt P18065 36-325, looked up)
Insulin-like growth …: AEVLFRCPPCTPERLAACGPPPVAPPAAVAAVAGGARMPCAELVREPGCGCCSVCARLEGEACGVYTPRCGQGLRCYPHPGSELPLQALVMGEGTCEKRRDAEYGASPEQVADNGDDHSEGGLVENHVDSTMNMLGGGGSAGRKPLKSGMKELAVFREKVTEQHRQMGKGGKHHLGLEEPKKLRPPPARTPCQQELDQVLERISTMRLPDERGPLEHLYSLHIPNCDKHGLYNLKQCKMSLNGQRGECWCVNPNTGKLIQGAPTIRGDPECHLFYNEQQEARGVHTQRMQ
Regarding B1, the “time to AKT activation” value in the assay with AKT is listed as not above 15 min. For the same molecule, the HuVEC proliferation entry with HuVECs [1] is “significantly stimulated”. For the same molecule, the HuVEC tube formation result in the assay on HuVECs [2] is listed as “significantly stimulated”. Moreover, the VEGF-A promoter activity result with VEGF-A promoter was “dose-dependently up-regulated”. In the assay with VEGF-A, the “VEGF-A expression, both RNA and protein” value was “dose-dependently up-regulated”. In the assay with HuVECs [3], the HuVEC migration result is given as “significantly stimulated”. In addition, the “vascularization in CAM” value in assay [4] was “significant vascularization”.
